Test results reported in patent publication US20250340646A1 (ELPIS BIOPHARMACEUTICALS, published 2025).
Changes are numbered by the printed parent chain. Names may count otherwise.

T1: recombinant His-tagged human IL-2Rβ (human, UniProt P14784 27-240, limits assumed)
T1 construct: also called IL-2Rβ-HIS; IL-15Rβ-HIS
T1 sequence (looked up): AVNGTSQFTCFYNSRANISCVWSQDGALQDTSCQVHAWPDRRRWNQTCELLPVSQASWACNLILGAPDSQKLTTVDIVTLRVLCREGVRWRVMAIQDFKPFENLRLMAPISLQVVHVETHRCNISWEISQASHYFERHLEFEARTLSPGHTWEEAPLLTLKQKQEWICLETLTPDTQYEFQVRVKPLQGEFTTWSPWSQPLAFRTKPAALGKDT

B1: IL-2/anti-PD-L1 scFv Fc EP290/EP326 (bispecific antibody)
chain 1: not shown
chain 2: QVQLVQSGAEVKKPGSSVKVSCKASGGTFSSYAISWVRQAPGQGLEWMGGIIPIFGTANYAQKFQGRVTITADESTSTAYMELSSLRSEDTAVYYCARDKWYGSAWRGDYWGQGTLVTVSSGGGGSGGGGSGGGGSQSVLTQPPSASGTPGQRVTISCSGSYSNIGSNFVNWYQQLPGTAPKLLIHFNNQRPSGVPDRFSGSRSGTSASLAISGLQSEDEADYFCSTWDDSLKGPIFGGGTKLTVLDKTHTCPPCPAPEAAGGPSVFLFPPKPKDTLMISRTPEVTCVVVDVSHEDPEVKFNWYVDGVEVHNAKTKPREEQYNSTYRVVSVLTVLHQDWLNGKEYKCKVSNKALGAPIEKTISKAKGQPREPQVCTLPPSRDELTKNQVSLSCAVKGFYPSDIAVEWESNGQPENNYKTTPPVLDSDGSFKLVSKLTVDKSRWQQGNVFSCSVMHEALHNHYTQKSLSLSPGK
notes: IL2-Fc knob with 2019EP69-F03 scFv-Fc hole (EP326)
B2: IL-2/anti-PD-L1 scFv Fc EP417/EP326 (bispecific antibody)
chain 1: not shown
chain 2: B1 chain 2
notes: IL2 EP339
B3: IL-2/anti-PD-L1 scFv Fc EP415/EP326 (bispecific antibody)
chain 1: not shown
chain 2: B1 chain 2
notes: IL2 EP337
B4: IL-2/anti-PD-L1 scFv Fc EP412/EP326 (bispecific antibody)
chain 1: not shown
chain 2: B1 chain 2
notes: IL2 with T3A/K35L/R38D/F42R
B5: IL-2/anti-PD-L1 scFv Fc EP416/EP326 (bispecific antibody)
chain 1: not shown
chain 2: B1 chain 2
notes: IL2 EP338
B6: IL-2/anti-PD-L1 scFv Fc EP297/EP326 (bispecific antibody)
chain 1: not shown
chain 2: B1 chain 2
notes: IL2 EP001
B7: IL-2/anti-PD-L1 scFv Fc EP291/EP326 (bispecific antibody)
chain 1: not shown
chain 2: B1 chain 2
notes: IL2 EP003
B8: 2018EP171-H02 scFv (scFv, V domains shown)
VH: QVQLVQSGAEVKKPGSSVKVSCKASGGTFSSYAISWVRQAPGQGLEWMGGIIPIFGTANYAQKFQGRVTITADESTSTAYMELSSLRSEDTAVYYCARDKGYGSGWRGDYWGQGTLVTVSS
VL: QSVLTQPPSASGTPGQRVTISCSGSYSNIGSNFVNWYQQLPGTAPKLLIHFNNQRPSGVPDRFSGSRSGTSASLAISGLQSEDEADYFCSTWDDSLKGPIFGGGTKLTVL
B9: 2018EP172-F10 scFv (scFv, V domains shown)
VH: B8 VH with V2M
VL: B8 VL with N52D
B10: 2018EP173-H11 scFv (scFv, V domains shown)
VH: QVQLVQSGGGLVKPGGSLRLSCAASGFTFSSYSMNWVRQAPGKGLEWVSSISSSSSYIYYADSVKGRFTISRDNAKNSLYLQMNSLKAEDTAVYYCARDSLQWLALDYWGQGTLVTVSS
VL: QPVLTQPPSVSVAPGETATITCGGNNIGRKSVHWYLQKPGQAPVLVIGHDTDRPSGIPARFSGSNSGNTATLTINRVEAGDEADYYCQVWDTSGHHYVFGTGTKVTVL
notes: not shown: scFv linker and domain order of the library scFv
B11: 2018EP164-F04 scFv (scFv, V domains shown)
VH: QVQLQQWGAGLLKPSETLSLTCAVYGGSFSGYYWSWIRQPPGKGLEWIGEINHSGSTNYNPSLKSRVTISVDTSKNQFSLKLSSVTAADTAVYYCARGRRLRYFDWAAYNWFDPWGQGTLVTVSS
VL: QSALTQDPAVSVALGQTVRITCQGDSLRSHYASWYQQKPGQAPVVVVYDNSDRPSGIPDRFSGSNSGNTATLTISRVEVGDEADYYCQVWDSSSDHYVFGTGTKV
B12: 2018EP161-F08 scFv (scFv, V domains shown)
VH: not shown
VL: DIVMTQSPSSLSASVGDRVTITCRASQTVSTYINWYQQRSGKGPKLLIFDASRLQSGAPSRFSGSGSGTEFTLTITSLQPDDSATYYCQQSYRIPLSFGGGTKVEIR
B13: IL-2/anti-PD-L1 scFv Fc EP414/EP326 (bispecific antibody)
chain 1: not shown
chain 2: B1 chain 2
notes: IL2 EP003 carrying K35L/R38D/F42R
B14: IL-2/anti-PD-L1 scFv Fc EP419/EP326 (bispecific antibody)
chain 1: not shown
chain 2: B1 chain 2
notes: IL2 EP343
B15: 2019EP69-H10 scFv (scFv, V domains shown)
VH: B8 VH with G101W, Y102F
VL: B8 VL
B16: 2019EP69-E10 scFv (scFv, V domains shown)
VH: B8 VH with Y102F
VL: B8 VL
B17: 2019EP69-F02 scFv (scFv, V domains shown)
VH: B8 VH with G101W
VL: B8 VL

Biological target: T1, recombinant His-tagged human IL-2Rβ
Test: SPR, Protein A capture, IL-2Rβ-HIS analyte
Method: (§1) The assay was run with Biacore T200 control software version 2.0. For each cycle, 1 μg/mL of anti-hPD-L1/IL-2 was captured for 60 seconds at flow rate of 10 μL/min on flow cell 2 in 1×HBSP buffer on Protein A sensor chip. […] The flow cells were then regenerated with Glycine pH2 for 60 seconds at flow rate of 30 μL/min. […] The specific binding response unit was derived from subtraction of binding to reference flow cell 1 from antibody captured flow cell 2.

Kd [nM] | koff [s⁻¹] | kon [M⁻¹ s⁻¹] | Binder
57.4 |  |  | B1
21.9 |  |  | B2
6.17 |  |  | B3
12000 |  |  | B4
26.5 |  |  | B5
3.32 | 0.00854 | 2.57e+06 | B6
1.87 |  |  | B7

Biological target: T2, PD-L1 biotinylated (PD-1/PD-L1 TR-FRET assay kit, BPS 72038) (Homo sapiens (Human), UniProt Q9NZQ7 19-238, biotinylated; site not stated)
T2 construct: Kit reagent
Test: HTRF competition, competitor PD-1-Eu
Method: Briefly, 1× Immuno buffer 1 was made. […] For each well in 384-well plate, serial diluted scFvs and regents were added according to manufacturer's recommended volume. Samples were incubated at room temperature for 1.5 hours then the fluorescent intensity was read with Biotek Neo2 plate reader using manufacture's instrument setting for the assay.

IC50 [nM] | Binder
176 | B1
2280 | B3
134 | B4

Biological target: PD-L1 on PD-L1 aAPC/CHOK1 cells (Promega J1250)
Test: cell-based or functional assay

NFAT reporter EC50 [nM] | Binder
2.3 | B1
3.46 | B3
2.61 | B4

Biological target: T3, human PD-L1-HIS tagged recombinant protein (human, UniProt Q9NZQ7 19-238)
T3 construct: also called hPD-L1-HIS; PD-L1 HIS tagged protein
Test: SPR, Protein A capture, PD-L1-HIS analyte
Method: as §1

Kd [nM] | koff [s⁻¹] | kon [M⁻¹ s⁻¹] | Binder
0.464 |  |  | B1
0.429 |  |  | B2
0.465 |  |  | B3
0.593 |  |  | B4
0.39 |  |  | B5
0.19 | 0.000149 | 782000 | B6
0.34 |  |  | B7

Biological target: T4, full-length human PD-L1 on K562 cells (human, UniProt Q9NZQ7 19-290)
T4 construct: also called PD-L1/K562; cell surface human PD-L1
Test: FACS, PD-L1/K562 cells
Method: (§2) Cells were spun down at 1200 rpm for 5 minutes at 4° C. to remove primary antibodies. Cells were then washed once with 200 μL of full medium per well. […] Samples were spun down at 1200 rpm for 5 minutes at 4° C. and washed twice with 200 μL of 1×PBS per well. Samples were reconstituted in 200 μL of 1×PBS and were read on Attune NxT cytometer.

EC50 [nM] | Binder
0.25 | B8
< 1 | B9
5.1 | B10
< 1 | B11
7.72 | B12

Biological target: T1, recombinant His-tagged human IL-2Rβ
Test: ELISA, coated His-tagged IL-2Rβ
Method: For monovalent IL-2 Fc-fusion proteins, recombinant His-tagged human IL-2Rα and IL-2Rβ were added in 25 μL of 1×PBS to wells of 384-well plate and incubated overnight at 4° C. to coat the plates. Plates were washed three times with 0.05% Tween20/1×PBS. Plates were blocked with 100 μL of SuperBlock for 1 hr at RT and then washed 3 times with 0.05% Tween20/1×PBS. IL-2 mutants were diluted in 0.05% Tween 20/1×PBS from 1000 nM to 0 nM and added to plates for 2 hrs at room temperature. Plates were then washed 6 times with 0.05% Tween20/1×PBS. Anti-HisTag-HRP was diluted 1:5000 in 0.05% Tween20/1×PBS and added to plates for 1 hr at RT. Plates were then washed 6 times with 0.05% Tween 20/1×PBS, and TMB was added to develop blue color. Reactions were stopped with 2N […] and light absorbance at 450 nm was read on a BioTek plate reader. Absorbance versus IL-2 concentration is graphed for human IL-2Rα and IL-2Rβ. […]

EC50 [nM] | Binder
4.01 | B1
0.515 | B2
1.33 | B3
2.18 | B4
0.51 | B13
1.24 | B5
0.43 | B6
0.613 | B14
0.552 | B7

Biological target: biotinylated PD-L1 (Homo sapiens (Human), UniProt Q9NZQ7 19-238, biotinylated; site not stated)
Test: ELISA, anti-human Fc capture, biotinylated PD-L1
Method: A 384 well plate was immobilized with anti-human Fc at final concentration of 2 μg/mL in 1×PBS in total volume of 25 μL per well. The plate was incubated overnight at 4C followed by blocking with 80 μL of superblock per well for 1 hour. […] In between each step, the plate was washed 3 times with 1×PBST in a plate washer. The plate was then developed with 25 μL of TMB substrate for 5 min and stopped by adding 25 μL of 2N sulfuric acid. The plate was read at OD450 nm Biotek plate reader and the binding correlation was plotted with Prism 8.1 software. The ELISA binding assays of the antibodies to IL-2Rα and IL-2Rβ receptors were performed as described in Example 6.

EC50 [nM] | Binder
0.141 | B1
0.188 | B2
0.227 | B3
0.156 | B4
0.212 | B13
0.298 | B5
0.108 | B6
0.206 | B14
0.246 | B7

Biological target: T4, full-length human PD-L1 on K562 cells
Test: FACS, PD-L1/K562 cells
Remark: another data set of the same source
Method: as §2
The production, the binding, and all of the characterization assays for selected affinity matured scFv clones were performed as described above.

EC50 [nM] | Binder
0.25 | B8
0.0799 | B15
0.207 | B16
2 | B17
